Experimental data taken from paper PMC3305377, “Insights into the structure and activity of prototype foamy virus RNase H”.

Biological target: PFV PR-RT (protease-reverse transcriptase) (prototype foamy virus, UniProt P14350 1-751)
Assay: fluorescence anisotropy; 10 mM EDTA, no Mg2+; 5 nM substrate; 50 mM Tris/HCl pH 8.0, 80 mM KCl, 10 mM EDTA, 0.5 mM DTT, 25 C
Conditions: protein: recombinant; label: 5'-DY647 on RNA; 24 bp hybrid; RNA template overhangs 5' 5 nt and 3' 11 nt

B1: 24/40-mer DNA/RNA primer/template (DNA:RNA)
RNA: CUAAUUCCGCUUUCCCCUCUCCUGGUGAUCCUUUCCAUCC
DNA: ATCACCAGGAGAGGGGAAAGCGGA
- Kd: 9.1 ± 1.7 nM
